Legend:
[1] = target: IFI16 (gamma-interferon-inducible protein 16) (human (endogenous in HMVEC-d, HFF, BJAB, BCBL-1)) (UniProt Q16666); assay: co-IP; whole cell lysates of KSHV infected HMVEC-d cells (4 h; 30 min, 4 and 24 h for the p300 blot); IP with anti-Ran, anti-IFI16, anti-STING or anti-ASC antibodies; cells untreated or electroporated with siC, sicGAS or siASC
[2] = target: IFI16 (gamma-interferon-inducible protein 16) (human (endogenous in HMVEC-d, HFF, BJAB, BCBL-1)) (UniProt Q16666); assay: co-IP; whole cell lysates of KSHV infected HMVEC-d cells electroporated with siBRCA1 (48 h); IP with anti-IFI16 antibody

UniProt Q16666, sequence (Q16666 whole entry): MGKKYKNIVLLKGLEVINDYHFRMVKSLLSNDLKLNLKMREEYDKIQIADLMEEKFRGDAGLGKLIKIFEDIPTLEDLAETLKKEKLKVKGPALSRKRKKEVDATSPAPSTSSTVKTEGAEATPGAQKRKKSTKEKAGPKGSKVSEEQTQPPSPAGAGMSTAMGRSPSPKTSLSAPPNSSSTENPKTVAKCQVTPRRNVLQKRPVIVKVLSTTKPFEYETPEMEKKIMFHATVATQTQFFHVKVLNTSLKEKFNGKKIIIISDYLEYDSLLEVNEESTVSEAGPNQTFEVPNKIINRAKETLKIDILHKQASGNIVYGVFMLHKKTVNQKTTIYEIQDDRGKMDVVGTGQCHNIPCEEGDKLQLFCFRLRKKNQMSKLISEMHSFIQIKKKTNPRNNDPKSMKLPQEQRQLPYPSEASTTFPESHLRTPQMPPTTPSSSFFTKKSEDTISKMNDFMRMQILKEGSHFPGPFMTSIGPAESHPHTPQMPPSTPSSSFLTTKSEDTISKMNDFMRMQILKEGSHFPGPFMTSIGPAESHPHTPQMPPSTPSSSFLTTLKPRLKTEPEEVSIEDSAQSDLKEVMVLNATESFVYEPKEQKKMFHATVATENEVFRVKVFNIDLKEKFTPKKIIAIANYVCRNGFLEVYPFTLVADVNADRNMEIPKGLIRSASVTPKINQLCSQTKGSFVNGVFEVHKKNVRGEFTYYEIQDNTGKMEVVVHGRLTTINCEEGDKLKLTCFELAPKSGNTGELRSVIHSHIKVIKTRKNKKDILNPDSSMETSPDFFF

For “histone H2B (from UniProt P62807 1-126) (natural protein)”, the reduction of the IFI16-H2B co-precipitate on cGAS knockdown [1] was 25% and the reduction of the IFI16-H2B co-precipitate on BRCA1 knockdown [2] was 40%.

Reference: article PMC5072618
